Reference: US12083109B2, “Neurokinin antagonists and uses thereof” (California Institute of Technology, priority 2017, dated 2024)
Entries after “also recorded” stand apart in the source; their conditions may differ.

T1: Nk3R (Mus musculus, UniProt P47937)
T1 sequence (P47937 1-452): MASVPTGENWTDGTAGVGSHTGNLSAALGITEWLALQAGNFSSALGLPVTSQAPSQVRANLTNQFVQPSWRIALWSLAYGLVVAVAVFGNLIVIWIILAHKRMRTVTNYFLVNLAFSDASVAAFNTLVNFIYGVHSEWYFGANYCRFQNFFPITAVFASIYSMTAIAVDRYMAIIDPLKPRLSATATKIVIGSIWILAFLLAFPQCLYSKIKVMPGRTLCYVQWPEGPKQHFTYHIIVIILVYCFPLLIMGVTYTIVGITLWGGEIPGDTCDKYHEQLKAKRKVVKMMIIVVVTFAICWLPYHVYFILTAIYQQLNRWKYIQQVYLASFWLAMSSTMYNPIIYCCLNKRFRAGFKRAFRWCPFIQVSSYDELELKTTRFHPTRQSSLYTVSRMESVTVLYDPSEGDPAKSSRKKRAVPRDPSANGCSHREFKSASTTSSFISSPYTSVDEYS


Legend:
Nk3R = biological target: T1, Nk3R; test: SIS mice: overall behavioral effects and return to group housing, osanetant; format: in vivo; set-up: from tissue; host or cells: Living mice (wild-type C57Bl6/N males, Charles River); settings: for fighting/aggression on return of SIS mice to housing with cagemates: osanetant during or during or following SIS
Text: WT males (Charles River) were housed in isolation (1 animal per cage), or in groups of 3. Tac2-Cre males (bred in-house) were housed in isolation, or in groups of 2-5. Animals were isolated post-weaning, at 8-16 weeks of age. All cage conditions remained otherwise identical for group-housed mice compared to isolated animals, and mice were housed on the same rack in the same vivarium. Except as otherwise indicated, social isolation was maintained for at least 2 weeks (this period was extended in the case of surgical experiments, i.e. when adequate time for recovery and viral expression levels were required). All mice were between 12-20 weeks of age at the time of behavioral testing. We asked whether Tac2 signaling is required during the period of social isolation to observe the changes in behavior. Mice were administered osanetant daily in their home cage during the two-week social isolation period, but were then tested off-drug. To control for carry-over of the drug from the final homecage administration into the testing period (24 hrs later), an additional group of mice was subjected to two weeks of SIS without drug, and given a single home-cage administration of osanetant 24 hours prior to testing (FIG. 3G).

Tac2 mRNA = Tac2 mRNA knockdown by FISH and qRT-PCR in brain of shRNA mice; format: in vivo, mouse; settings: for knockdown of Tac2 mRNA (efficacy of shRNA): FISH and qRT-PCR; for Tac2 mRNA in CeA / Tac2 mRNA in DMH / Tac2 mRNA in dBNSTa: FISH fluorescence / qRT-PCR vs luciferase shRNA control
Method: Fluorescent in situ hybridization (FISH) was carried out according to the protocol described in (Thompson et al., 2008; incorporated by reference in its entirety) with modifications. Briefly, mice were transcardially perfused with 1×PBS followed by 4% paraformaldehyde/PBS (PFA) in 1×PBS. Brains were fixed in 4% PFA for 3-4 hours at 4° C., and cryoprotected overnight in 15% sucrose at 4° C. Brains were embedded in OCT Compound (Fisher Scientific) and cryosectioned at 30 μm thickness and mounted on Superfrost Plus slides (Fisher Scientific). Sections were fixed in 4% PFA for 30 minutes, acetylated with 0.25% acetic anhydride in 0.1 M triethanolamine for 10 minutes, dehydrated with increasing concentrations of EtOH (50, 70, 95 and 100%), gently treated with proteinase K ([…] in 0.01M Tris-HCl pH 7.4 and 0.001M EDTA) for 10 minutes, and fixed in 4% PFA for 20 minutes. All procedures were performed at room temperature (RT). The hybridization buffer contained 50% deionized formamide, 3× standard saline citrate (SSC), 0.12 M PB (pH 7.4), 10% dextran sulfate, 0.12 mg/ml yeast tRNA, 0.1 mg/mL calf thymus DNA, and 1× Dehardt solution. The sections were prehybridized at 63° C. in hybridization buffer for 30 minutes and then hybridized with the digoxigenin-labeled Tac2 RNA probe (300 ng/ml) in hybridization buffer at 63° C. for 16 hours. After hybridization, the sections were washed with 5×SSC for 10 minutes, 4×SSC/50% formamide for 20 minutes, 2×SSC/50% formamide for 30 minutes, and 0.1×SSC for 20 minutes twice each at 61° C. The sections were blocked with 4% sheep serum in TNT buffer (Tris-HCl pH7.5, 0.15 M NaCl and 0.00075% Tween 20) for 30 minutes and TNB Blocking buffer (TSA blocking reagent, PerkinElmer, Waltham, MA) for 30 minutes at RT. The sections were incubated overnight at RT with anti-digoxigenin-POD antibody (1:600, Roche Diagnostics) in TNB buffer. The sections were washed with TNT buffer and tyramide-biotin signal amplification was performed using the TSA Plus Biotin Kit (PerkinElmer). Signals were visualized after 1 hour incubation with Alexa Fluor 594 Streptavidin (Jackson ImmunoResearch) or Alexa Fluor 488 Streptavidin (Invitrogen) at RT. Sections were counterstained with DAPI ([…] in PBS), washed with 1×PBS, and coverslipped using Fluoro-Gel with Tris Buffer (Electron Microscopy Sciences). Tissue images of entire coronal brain sections were taken using an Olympus VS120-S6-W slide-scanner and cells positive for the probe were counted. Cell Counting
Following confocal or slide-scanner imaging, quantification of labeled cells was performed using ImageJ and Metamorph. Cells were counted by an observer blind to experimental conditions. Brain images were converted to greyscale (16-bit) in ImageJ and adjusted using automatic thresholding and watershed separation. Cells were either counted automatically using ImageJ's particle analysis algorithm (random sections were counted manually to cross-check that automated scoring was consistent with manual human scoring); otherwise, cells were counted manually using MetaMorph. Cells that were not entirely contained within a given region of interest (ROI) were excluded from analyses. Relative fluorescent intensities were measured automatically using MetaMorph for a given ROI. Raw cell counts within an ROI were divided by the size of the ROI (mm^2) to produce the number of positively labeled cells/mm^2.
Group housed or isolated (30 minutes, 24 hours, 2 weeks) mice were decapitated and brains were quickly removed and placed in RNA Later (Qiagen) at 4° C. Tissue from dBNSTa, DMH, CeA, ACC, and dHPC was microdissected and placed in RNA Later. Tissue was then homogenized and RNA purified using an RNAeasy Plus Mini Kit (Qiagen). 150ng of total RNA/region/condition was then incubated with 3 μl of Turbo DNase, 1 μl of Murine RNase Inhibitor in 1× Turbo DNase buffer for 15 minutes at 37° C. to remove any contaminating genomic DNA. […]

Molecule	behavioral effects of 2 weeks of social isolation stress (overall) (Nk3R; mice)	fighting/aggression on return of SIS mice to housing with cagemates (Nk3R)	fighting/aggression on return of SIS mice to housing with cagemates (Nk3R; listed as Osanetant)	knockdown of Tac2 mRNA (efficacy of shRNA) (Tac2 mRNA)	Tac2 mRNA in CeA (Tac2 mRNA)	Tac2 mRNA in DMH (Tac2 mRNA)	Tac2 mRNA in dBNSTa (Tac2 mRNA)
CC(=O)N(C)C1(c2ccccc2)CCN(CCC[C@]2(c3ccc(Cl)c(Cl)c3)CCCN(C(=O)c3ccccc3)C2)CC1 [osanetant, N-(1-{3-[(3R)-1-benzoyl-3-(3,4-dichlorophenyl)piperidin-3-yl]propyl}-4-phenylpiperidin-4-yl)-N-methylacetamide]	protects and prevents	without any subsequent fighting observed	prevents aggression				
shRNA-2: small hairpin RNA for mouse Tac2 gene (SEQ ID NO: 11, 12), expressed from AAV5-H1-shRNA-CMV-zsGreen (nucleic acid) chain 1: CCGCCTCAACCCCATAGCAATTAGCTTCCTGTCACTAATTGCTATGGGGTTGAGGCTTTTTT chain 2: AAAAAAGCCTCAACCCCATAGCAATTAGTGACAGGAAGCTAATTGCTATGGGGTTGAGGCGG				proved effective; also recorded: strongest reductions; also recorded: stronger knockdown	appeared reduced	reduced	reduced
shRNA-1: small hairpin RNA for mouse Tac2 gene (SEQ ID NO: 9, 10), expressed from AAV5-H1-shRNA-CMV-zsGreen (nucleic acid) chain 1: CCGACGTGGTTGAAGAGAACACCGCTTCCTGTCACGGTGTTCTCTTCAACCACGTCTTTTTT chain 2: AAAAAAGACGTGGTTGAAGAGAACACCGTGACAGGAAGCGGTGTTCTCTTCAACCACGTCGG				proved effective	appeared reduced	reduced	reduced
